# Assay results from the supplement of paper PMC9732359.
# ± gives the uncertainty stated by the source.
# Assay: protein stability index of a GFP-peptide fusion (yeast GPS) (PSI 1-4); higher = more stable; sorted into four equal gates, so the index is relative within each strain
# How it was run: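 Each library plasmid carries Cherry plus GFP with a tiled 17-residue yeast protein peptide fused downstream, and the pooled library was carried in yeast. Mid-log cultures in leucine-free medium were sorted into four equal gates by GFP/Cherry ratio. Reads from Illumina sequencing of PCR-amplified plasmids from each gate were assigned to strains by barcodes. Per peptide, the protein stability index was computed as the summed products of gate read frequency and gate number.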
Sequence,protein stability index (doa10∆),protein stability index (pdr5∆),protein stability index (san1∆),protein stability index (ubr1∆)
GVLKPDITFFGEALPNK [SIR2],3.34 ± 0.08,3.19 ± 0.083,3.16 ± 0.091,3.35 ± 0.085
GVLLPTRIKLLLTKNVS [RPS6A],1.43 ± 0.11,1.49 ± 0.11,,2.03 ± 0.11
GVTIEFSTNVKDEIVLS [RPL9A],3.09 ± 0.23,3.33 ± 0.13,3.3 ± 0.088,3.18 ± 0.065
GVWVRYDSRSGTHNMYK [RPL20A],,2.3 ± 0.26,3.1 ± 0.29,
GYKMIPGAKPLQVGDVV [FAS1],2.43 ± 0.1,2.44 ± 0.1,2.37 ± 0.1,1.79 ± 0.14
HAPAYHRSKKDQDQYLE [IRR1],,3.56 ± 0.3,2.95 ± 0.19,
HAQLLLSDRITGNFIIP [PRP8],2.09 ± 0.061,2.52 ± 0.071,2.37 ± 0.071,2.71 ± 0.043
HDYWNKIMQSISNKDVI [SRB4],1.85 ± 0.27,1.62 ± 0.23,1.33 ± 0.19,
HEIYGSMPLEQLIPIIL [SRB4],2.06 ± 0.06,2.08 ± 0.068,2.37 ± 0.08,1.72 ± 0.059
HEVVQDDSFSLLRIQML [PCI8],2.7 ± 0.049,2.96 ± 0.063,2.74 ± 0.047,2.84 ± 0.036
HFFKWIEFIVYHQLLSD [SRB8],1.45 ± 0.05,1.3 ± 0.046,2.03 ± 0.08,1.2 ± 0.041
HFNGIRRLDALVEKVYA [ITC1],3.65 ± 0.11,2.77 ± 0.068,1.94 ± 0.28,2.95 ± 0.089
HGHLGFLPRKRAASIRA [RPL3],2.1 ± 0.086,2.44 ± 0.067,2.79 ± 0.055,2.2 ± 0.077
HGLILELQKIWQIEEAG [SRB5],2.86 ± 0.094,2.93 ± 0.091,3.19 ± 0.048,3.14 ± 0.043
HGLKQLRDSLADKIVDE [NUT2],3.11 ± 0.083,2.13 ± 0.077,1.52 ± 0.071,2.3 ± 0.055
HGMSVDPRHIQLLGDVM [RPO31],2.73 ± 0.057,2.82 ± 0.062,2.85 ± 0.049,2.98 ± 0.04
HGSISPQEESVSPNISS [SIR3],2.82 ± 0.075,3.06 ± 0.07,2.98 ± 0.046,3.01 ± 0.034
HHELVPKHIRLSSDEKR [RPB5],2.9 ± 0.12,3.54 ± 0.12,2.82 ± 0.18,3.16 ± 0.073
HHFTCEITGTSCLTFFQ [ITC1],1.9 ± 0.05,2.2 ± 0.057,2.04 ± 0.078,2.07 ± 0.047
HHRIFDSSAHFKGALTI [YMR129W/POM152],2.56 ± 0.073,2.73 ± 0.084,2.44 ± 0.14,2.62 ± 0.053
HICGICGLMTVIAKLNH [RPB2],1.65 ± 0.077,1.33 ± 0.08,1.23 ± 0.14,1.43 ± 0.066
HIFQVEYALEAVKRGTC [PRE6],2.76 ± 0.15,2.75 ± 0.13,2.54 ± 0.19,2.77 ± 0.19
HILAVKKMMNTLVHTRV [SSN2],2.25 ± 0.056,2.03 ± 0.062,2.06 ± 0.086,1.34 ± 0.059
HINKIPSNSTTTLHGPG [SRB8],2.89 ± 0.059,3.17 ± 0.059,2.96 ± 0.052,3.11 ± 0.039
HIPRLIPKQLLDDEKIF [YJL039C/NUP192],1.44 ± 0.18,1.54 ± 0.088,1.87 ± 0.19,1.31 ± 0.08

Sequence,protein stability index (doa10∆),protein stability index (pdr5∆),protein stability index (san1∆),protein stability index (ubr1∆)
HIQEEEEQDVDMTGDEE [RPC19],3.38 ± 0.15,3.35 ± 0.13,3.05 ± 0.075,3.27 ± 0.063
HKDSFYDRATLTQLLSM [RPO31],1.79 ± 0.066,2.09 ± 0.062,2.09 ± 0.071,1.35 ± 0.04
HKKDRLQYLPLYAVSTF [SIR4],1.59 ± 0.035,1.66 ± 0.035,1.35 ± 0.054,1.89 ± 0.037
HKLDLAKRNLDANPSSQ [SMC2],1.86 ± 0.052,2.24 ± 0.065,1.67 ± 0.091,1.66 ± 0.035
HKQISAEDLTIAAKTHI [SIN4],3.03 ± 0.12,3.1 ± 0.079,3.35 ± 0.084,2.76 ± 0.088
HKSGKLSVKIGNVVMDI [RPC53],1.53 ± 0.1,1.25 ± 0.073,1.07 ± 0.2,
HLCSGILSSVNRTVLLK [SRB8],1.42 ± 0.073,1.67 ± 0.15,1.41 ± 0.17,1.67 ± 0.047
HLERNRKDKDAKFRLIL [RPS13],3.22 ± 0.12,3.06 ± 0.13,3.38 ± 0.24,3.52 ± 0.2
HLGCVPIGEAGDFGGWF [RIP1],2.81 ± 0.12,3.08 ± 0.11,2.7 ± 0.11,3.06 ± 0.14
HLLSINYGEKEERKRWA [PCI8],3.17 ± 0.11,3.13 ± 0.096,3.41 ± 0.18,3.4 ± 0.095
HLNFPNVKFLRIFISNV [SNF12],1.79 ± 0.071,1.26 ± 0.094,1.27 ± 0.13,1.19 ± 0.087
HLSHPGTNKDMILKLVC [ECM29],1.52 ± 0.049,1.45 ± 0.035,1.32 ± 0.09,1.91 ± 0.045
HLSYCSNLTIYPIYELL [GRR1],2.54 ± 0.071,2.87 ± 0.1,3.17 ± 0.062,3.06 ± 0.074
HNAGPVAGAGAASGAAA [RPP1B],3.11 ± 0.11,2.24 ± 0.05,2.22 ± 0.12,2.02 ± 0.059
HNMLNLLIHRKGLTYLH [PRP8],1.33 ± 0.08,1.45 ± 0.038,1.6 ± 0.1,1.66 ± 0.049
HPFGHALVAGIERYPSK [RPL27B],2.43 ± 0.14,2.67 ± 0.1,2.24 ± 0.16,2.46 ± 0.17
HPIRLYTRYLDRIYMLF [PRP8],2.63 ± 0.067,1.76 ± 0.063,2.29 ± 0.1,2.4 ± 0.042
HPWEQAKEVKVLYHTSG [PRP8],2.81 ± 0.23,2.78 ± 0.14,3.03 ± 0.085,2.9 ± 0.091
HQGTPLGSHSSSQKDGN [REC8],3.21 ± 0.094,3.29 ± 0.093,2.88 ± 0.13,3.35 ± 0.089
HRKHIAVLKKIQSKAVE [YCG1],2.55 ± 0.11,2.81 ± 0.097,2.69 ± 0.1,2.57 ± 0.064
HRLKLCKSLISENEDTK [CSE2],2.91 ± 0.17,3.24 ± 0.27,2.42 ± 0.2,
HRSGKIVVQLNGRLNKC [RPS22A],,3.52 ± 0.23,2.98 ± 0.13,3.36 ± 0.13
HSQFMKDLKDDSIYTKP [YJL039C/NUP192],2.83 ± 0.045,3.02 ± 0.05,3.02 ± 0.044,2.93 ± 0.038
HSRILPKKALKVKAGVR [RRP43],1.73 ± 0.046,1.63 ± 0.054,1.57 ± 0.082,1.6 ± 0.032
HTEDTVNESRNSDDIID [SRB5],2.31 ± 0.061,2.52 ± 0.056,2.43 ± 0.071,2.46 ± 0.055
